A protein production outcome set (Wang et al. 2014)

Experiment: label from the status in PepcDB records

| Sequence | protein production |
| --- | --- |
| RLEITPEAFLSDPTPAGVAARAAYELDPDIHVLPLADGTGEPLYLLHPSGGDVLCYMGLARELQGRPVYAVADPGLEDTPMPVDLDVVALTYGRVIMAHRAGLADTGKHGVREATAGYLIGGWSMGGTVAQRVAVQWRDQGIAVGALVLIDSNSPDRIRALTGMNDREVDAEFARRYLRSLQAFGAKAVDASAVTESDPASGVARALAGQGLALKDVERRISVFTRHLAGLAQLRVRPLVDVPTLLVIAEHQSPANSGVGMGVDDARDTEHLGWDDNLPTSTTEIMVPGHHYSVLSAPGLEIISEQIRELLA | failed |
| ESYTIPHPSYDQPDSYQEREIVIGNSTYPLPATLTVPKHQRGEKVPVVVLVHGAGIHDRDATYLGTKILRDLAVGLSSNGIAVLRYEKRTLEHALKMSAEPVTLDRDTTDDAIYAAKSAAQQEGIDPNNIFILGHSQGAGTMPRILSKAPSSLVRGSILLAPPAHPLTDIAIDQYQYLGKPQEEIDELKRQAAFIQDPTFNPDHPPAGYNFGSPHFMYDVSRWRPVEEAKSRKEPLLILQGARDYQVTVKNEYTKWQEGLANRRNVQFKKYPKLNHFFTEGDGELSLPSEYEIPANVPEYVIQDIITWVNETK | failed |
| MLKFPLCCSELSLEPKILAFESQLVSGRRDTIKVSAGKIGNFSLGSIFKSCETCGAKGAIECPGCKGTGKNKKNGNMFERWKCFDCQGFGMKSCPKCGKGGLTPEQRGER | failed |
| MGPERHLSGAPARMATVVLGGDTMGPERIFPNQTEELGHQGPSEGTGDWSSEEPEEEQEETGSGPAGYSYQPLNQDPEQEEVELAPVGDGDVVADIQDRIQALGLHLPDPPLESEDEDEEGATALNNHSSIPMDPEHVELVKRTMAGVSLPAPGVPAWAREISDAQWEDVVQKALQARQASPAWK | failed |
| MARVLVSSPSSFFGSPLIKPSSSLRHSGVGGGGTAQFLPYRSNNNKLFTTSTTVRFSLNEIPPFHGLDSSVDIGAIFTRAESLLYTIADAAVVGADSVVTTDSSAVQKSGGWFGFISDAMELVLKILKDGLSAVHVPYAYGFAIILLTIIVKAATYPLTKQQVESTLAMQNLQPKIKAIQQRYAGNQERIQLETSRLYKQAGVNPLAGCLPTLATIPVWIGLYQALSNVANEGLFTEGFFWIPSLGGPTSIAARQSGSGISWLFPFVDGHPPLGWYDTVAYLVLPVLLIASQYVSMEIMKPPQTDDPAQKNTLLVFKFLPLMIGYFALSVPSGLSIYWLTNNVLSTAQQVYLRKLGGAKPNMDENASKIISAGRAKRSIAQPDDAGERFRQLKEQEKRSKKNKAVAKDTVELVEESQSESEEGSDDEEEEAREGALASSTTSKPLPEVGQRRSKRSKRKRTV | failed |
| MGRNQGAYLDPSESILMLMVAFLLVLLNAFFVLSEFALVKVRKTRLEELVKIGNSNAKLALKMSQRLDTYLSATQLGITLSSLALGWVGEPAIAKLLAALFESMDLRENPIFIHSMSVVIAFLSITFLHVVLGEIVPKSLAIAKSEKATLFAARPLHVFWVVFYPVVRLFDVIAHFFLKKMGINPKEHDGTHSEEELKIIVGESLREGIIDSVEGEIIKNAXDFSDTSAKEIMTPRKDMVCLDEENSYEENIDIVLKGHFTRYPYCKGSKDNIIGMVHIRDLLSRSIFTPKMHDFNQIVRKMIIVPESASISQILIKMKKEQIHTALVIDEYGGTAGLLTMEDIIEEIMGEISDEYDLKQEGINKLEEGVFELEGMLDLESVEEALHIEFDKECEQVTLGGYVFSLLERMPMEGDTIVSHGYSFEVLSVDGARIKRLKAVKQDQGENEA | failed |
| MRPHRAFSPGLTGVLPLRETRHLVEVLRARVGDRFTVFDGEREALAEVVDLGPPLRYRVLEERRPEREVGVEVVLYVALLKGDKLAEVVRAATELGATRIQPLVTRHSVPKEMGEGKLRRLRAVALEAAKQSGRVVVPEVLPPIPLKAVPQVAQGLVAHVGATARVREVLDPEKPLALAVGPEGGFAEEEVALLEARGFTPVSLGRRILRAETAALALLALCTAGEGR | not failed |
| MPRALPRLPRPLLAVLSLSLTLGIAQADTAPLFSADGYRTTHYRSPTPQQVEGGQVVDTATLQSLLGQTPRPVLIDVYRRQWLQGRFIEDQPHSNLPGSLWLANTGDGELSPAWQDYFVRNLQKATAGHLDQPLVFYCRSDCWLSWNAVKRAKALGYNNLYWYRDGLDAWQQANLPLQPAQPVPFP | failed |
| MRPESMTDGVPGSDSPAAAAAAASVTTSLHDLQVLVERGTLSGPEKQQADHLVTSLKRELVLRRVGDHLAERTFHELCVRLAVMERDWAAMERHIQQLMPLYELDRQAGIQSPHRDLLVGLNLMRLLAQNRLAEYHMELELLPTTEPQQNPYVLFPFQVEQALTEGSYQKILHIEAGAEWLPFIELLRETTIQEMVTSWAEAYAHVTLEELASMAALPVEQVPALLARVLDCTQYVVQNETVHFIASDHIREAPSQYLLAKEAVSRTMEYIRGLERIV | not failed |
| MSQDGGQGRYAGRALAGGRYQLRDLLGEGGMASVHLAYDSVLDRQVAIKTLHTELGREQAFRERFRREAQAVAKLTHTNIVSVFDTGEDDLDGMTTPYIVMEYVEGRPLGSVLDEDVRQQGAMPADKALKITADVLAALEISHEMGLVHRDIKPGNVMMTKRGVVKVMDFGIARAMQSGVTSMTQTGMVVGTPQYLSPEQALGRGVDARSDLYSVGIMLFQLVTGRLPFDADSPLAIAYAHVQEQPVAPSAVNRALPPAVDALVARALKKNPNERFPSAEAMRDECLRVAASFQAAPPSIVPGAQTSSGAGVGSAVFPPVGQGTPAPTGPVQTPYQPTPSPGPNPYGTPAPAAHSPAYGYPQQAGYQTPAPAPYAQQQAAATPPPYNLTPSAQGSGSGSPGGKSNKPVIIGSIVVAVVAVGGLIGALLMNGGGDEDPEAGGGGSSTASVSASPSKAAGYRGPDKEKTIEKDKCTEPQESYNDPDKIQVPDFTFKYIGSVKECFNAAGWQMKVVEVDENTYGEGSVRDQFPTAGTDVDPENMPEIQLKVSTGNPPSE | failed |
| MPNCEKEALVVAAAMEKGTIHPIGRYLLPQYWEGPPLCFEYFPGRGLTATVSCIESVTEGNKLRKSSLGSVEFITSLFESQDQSREIKNAVNSSLYGNDFVHALLSLYQKVTLIHLEDQPHQPFYRPISLNLRHVMIKINTFIQFFFRMNQISNHEIGSFSAFATQFFSFLTHYSILPNPINSLNPTLRPLVPCTIHELAPPPAPPPFPSCKSAM | failed |
| MRVFVTGASGWIGSAVVPELIRAGHQVVGLARSDASAEALTAAGAGVVRGTLDDLDVLRRAAADSDGVVHLAFKHDIAFSGDFKGAGEADRRAVEVIGEALAGSDRPFTIASGTPAIPGHVATEHDGHDADRAAAARGDAQHIRAVTAELTVSLSARGVRSSVVRLAPTNHGEGDNGFVPALIGIARGKGVSGYIGDGTNRWSAAHRLDSARLFRLALEKAPAGSTLHAVAEEGLPVRDLAEVVGRQLGLPVVSVPAAEAEAHFGWLAGPLAANRAASSVLTRELLGWEPVQPGLVEDLEQGHYFK | failed |
| FCGRARVHTDFTPSPYDTDSLKLKKGDIIDIISKPPMGTWMGLLNNKVGTFKFIYVDVLS | not failed |
| MATEATTKFPESDLRPIPQPPDFHPAIIVPAQNTTLKFWQLMVAGSIAGSVEHMAMFPVDTVKTHMQALRSCPIKPIGIRQAFRSIIKTDGPSALYRGIWAMGLGAGPAHAVYFSFYEVSKKFLSGGNPNNSAAHAISGVFATISSDAVFTPMDMVKQRLQIGNGTYKGVWDCIKRVTREEGFGAFYASYRTTVLMNAPFTAVHFTTYEAVKRGLREMLPEHAVGAEDEEGWLIYATAGAAAGGLAAAVTTPLDVVKTQLQCQGVCGCDRFKSSSISDVFRTIVKKDGYRGLARGWLPRMLFHAPAAAICWSTYETVKSFFQDLNGEANAA | failed |
| MKYVPSFKSLKETENGWELQVSWMITVTLRVTMQKSRDEITYLIKKTEGLVKINSYLRFIILPTRDRTVVRLTFFYKGPFERVAKRQTEEFYRRGVEIFKRDLESVQVERKEERGAPSNAKLLLNMRTLLSTQIGKDQLDEVLEQAMLWSVNSQVFVLISDGSRRVELRFRNGDLESGGDLSSLGDKITVIVKGDRAD | failed |
| MGYGKILVALDRSELAKEVLQQAIALGQKESSQLMVFYCIPVDSQDLSIYPSFYGEAAIGFSQIIKEHLEEQQTEAREWLQSIVQQVQEDGVACEWDVKVGEPGRWIRDMAKNWDADLVVLGRRGLKGLAEVFLGSVSSYVIHHVQCSVLIVQH | failed |
| MSVELEESQVCEACGCAGEIGFIIKEGDEVADVTIFAETKDALESELAKYIELAKSVCAGVEYNVSELTEESKELTARFKFEVSAEKLIFELKTRSLARLEHHHHHH | not failed |
| MADNYVIWFENLRMTDVERVGGKNASLGEMISQLTEKGVRVPGGFATTAEAYRAFLAHNGLSERISAALAKLDVEDVAELARVGKEIRQWILDTPFPEQLDAEIEAAWNKMVADAGGADISVAVRSSATAEDLPDASFAGQQETFLNINGLDNVKEAMHHVFASLYNDRAISYRVHKGFEHDIVALSAGVQRMVRSDSGASGVMFTLDTESGYDQVVFVTSSYGLGENVVQGAVNPDEFYVFKPTLKAGKPAILRKTMGSKHIKMIFTDKAEAGKSVTNVDVPEEDRNRFSITDEEITELAHYALTIEKHYGRPMDIEWGRDGLDGKLYILQARPETVKSQEEGNRNLRRFAINGDKTVLCEGRAIGQKVGQGKVRLIKDASEMDSVEAGDVLVTDMTDPDWEPVMKRASAIVTNRGGRTCHAAIIARELGIPAVVGCGNATELLKNGQEVTVSCAEGDTGFIYAGLLDVQITDVALDNMPKAPVKVMMNVGNPELAFSFANLPSEGIGLARMEFIINRQIGIHPKALLEFDKQDDELKAEITRRIAGYASPVDFYVDKIAEGVATLAASVYPRKTIVRMSDFKSNEYANLVGGNVYEPHEENPMLGFRGAARYVADNFKDCFALECKALKRVRDEMGLTNVEIMIPFVRTLGEAEAVVKALKENGLERGKNGLRLIMMCELPSNAVLAEQFLQYFDGFSIGSNDMTQLTLGLDRDSGLVSESFDERNPAVKVMLHLAISACRKQNKYVGICGQGPSDHPDFAKWLVEEGIESVSLNPDTVIETWLYLANELNK | not failed |
| MSDQPRPTVIITGASSGVGLYATKALANRGWHVIMACRNLEKAEQAAKNLQIPPEAYTILHLDLSSLASVRGFVESFRALNRPLRALVCNAAVYYPLLKEPIYSVDGYEITVATNHLGHFLLINLLLEDLKNSPESDKRLVILGTVTANRKELGGKIPIPAPPDLGNLEGFEKGFKKPIAMINGKPFKSGKAYKDSKLCNMLTARELHRRFHESTGIVFNSLYPGCVADTPLFRHHFPLFQKLFPLFQKKITGGYVSQELAGERVAMVVADPEFRQSGVHWSWGLEHHHHHH | not failed |
| MISNNTRRVYRISFSFFEQYCLEHNLQSLPADPRSIISFIGHQKELLQASTGMQLSKQTLTTRIAAIRFYHIQAGFPTPTEHPQVIRVMRGLSRNHHRLVQDYDQQPLEHHHHHH | failed |
| MEAKQAAGALLTVVGVLLILYAIYSGFVNETIGSTEKFSADAAAMIVGWFAVLIGPALLFGETPAAVRKAAGR | failed |
| MGHHHHHHSHVAKVSQREEMVKKCLGELTEVCKSLGKVFGVHYFNIFNTVTLKKLAESLSSDPEVLLQIDGVTEDKL | failed |
| MLNTSDIGKVFPSVTAVVEKGRLRFFAKAIGENNPIYTDEAAAKDAGYESLPMPPTFFFSLKMDVPNPFENYEKVGASLAKILHANQAFVYHQSVVAGDSLTFESHIADIYDKKAGALEFLVEKTKVSNQRGQHVADMTTTLVVRNLEHHHHHH | failed |
